From doi:10.1101/2024.05.10.593562 (bioRxiv, 2024)

Target: HDAC1-FLAG (UniProt Q13547 1-482)
Assay: AlphaScreen or HTRF

HDAC1-FLAG, sequence (Q13547 whole entry): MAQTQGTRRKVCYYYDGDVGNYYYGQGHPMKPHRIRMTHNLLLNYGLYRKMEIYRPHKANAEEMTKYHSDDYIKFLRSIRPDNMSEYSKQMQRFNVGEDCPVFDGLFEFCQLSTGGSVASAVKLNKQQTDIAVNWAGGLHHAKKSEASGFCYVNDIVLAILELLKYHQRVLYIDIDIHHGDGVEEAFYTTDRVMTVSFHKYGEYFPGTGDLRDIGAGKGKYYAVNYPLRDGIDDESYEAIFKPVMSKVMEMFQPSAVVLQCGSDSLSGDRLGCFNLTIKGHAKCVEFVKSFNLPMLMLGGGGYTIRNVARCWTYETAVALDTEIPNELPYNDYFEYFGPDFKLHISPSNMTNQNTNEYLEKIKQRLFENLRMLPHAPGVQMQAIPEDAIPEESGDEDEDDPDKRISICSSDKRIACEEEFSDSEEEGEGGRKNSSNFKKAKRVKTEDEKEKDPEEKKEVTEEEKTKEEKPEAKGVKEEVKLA

B1: GST-Rb 380-785 (domain or fragment)
chain: NTIQQLMMILNSASDQPSENLISYFNNCTVNPKESILKRVKDIGYIFKEKFAKAVGQGCVEIGSQRYKLGVRLYYRVMESMLKSEEERLSIQNFSKLLNDNIFHMSLLACALEVVMATYSRSTSQNLDSGTDLSFPWILNVLNLKAFDFYKVIESFIKAEGNLTREMIKHLERCEHRIMESLAWLSDSPLFDLIKQSKDREGPTDHLESACPLNLPLQNNHTAADMYLSPVRSPKKKGSTTRVNSTANAETQATSAFQTQKPLKSTSLSLFYKKVYRLAYLRLNTLCERLLSEHPELEHIIWTLFQHTLQNEYELMRDRHLDQIMMCSMYGICKVKNIDLKFKIIVTAYKDLPHAVQETFKRVLIKEEEYDSIIVFYNSVFMQRLKTNILQYASTRPPTLSPIPHI
binding result: binds
